{"source": "patent US5866683A", "about": "“Isoelectric point markers for isoelectric focusing with fluorescence detection” (Laboratory of Molecular Biophotonics, priority 1995, dated 1999)", "note": "Where no end group is shown, it is not given here."}
{"assay": "isoelectric focusing in polyacrylamide slab gel, mobility compared with commercial pI markers", "format": "physicochemical", "details": "fluorescence-labeled (5-carboxytetramethylrhodamine) oligopeptide, carrier ampholyte pH 3.5-10, vs pI calibration kit 3-10 (range pI 9.30-3.5)", "source_text": "In the present invention, pI of each marker for isoelectric focusing with fluorescence detection can be determined by performing isoelectric focusing to compare a mobility thereof with those of commercially available markers for isoelectric focusing or to directly measure pH at a position of migration of the labeled peptide. The isoelectric focusing preferably applicable is isoelectric focusing in polyacrylamide slab gel (see […]., Isoelectric Focusing: Theory, Methodology and Applications, Elsevier, Amsterdam, 1983). […] The focusing conditions were as follows: started at […] and focusing the voltage was increased at intervals of 15 minutes to 100 V, 200 V, 400 V, and 600 V. After focusing, fluorescence-labeled oligopeptides in the gel were photographed through an orange filter under illumination with ultraviolet light, thereby checking focusing positions thereof. […] After staining, de-stained with a mixed solvent of methanol and acetic acid to obtain a clear background, thereby checking the focusing positions. FIG. 5,6,and 7 show the focusing positions of the 24 fluorescence-labeled oligopeptides obtained and the isoelectric focusing markers commercially available."}
{"substance": "DEYHKR [No 12, oligopeptide labeled with 5-carboxytetramethylrhodamine]", "pI Observed": 5.55}
{"substance": "Tyr--Tyr--His--Lys--Arg (YYHKR; printed: Tyr--Tyr--His--Lys--Arg) [No 8, oligopeptide labeled with 5-carboxytetramethylrhodamine]", "pI Observed": "> 9.30"}
{"substance": "EHHHKR [No 17, oligopeptide labeled with 5-carboxytetramethylrhodamine]", "pI Observed": 7.90}
{"substance": "DDEHHHKR [No 20, oligopeptide labeled with 5-carboxytetramethylrhodamine]", "pI Observed": 4.70}
{"substance": "Glu--His--Lys--Arg (EHKR; printed: Glu--His--Lys--Arg) [No 9, oligopeptide labeled with 5-carboxytetramethylrhodamine]", "pI Observed": 7.65}
{"assay": "not given", "details": "unlabeled protein; cited from earlier work"}
{"substance": "β-lactoglobulin B [reference compound]", "pI (known) of conventional protein pI marker": 5.10}
{"substance": "phycocyanin [reference compound]", "pI (known) of conventional protein pI marker": 4.65}
{"substance": "human carbonic anhydrase [reference compound]", "pI (known) of conventional protein pI marker": 6.50}
{"substance": "human hemoglobin A [reference compound]", "pI (known) of conventional protein pI marker": 7.10}
{"substance": "bovine carbonic anhydrase [reference compound]", "pI (known) of conventional protein pI marker": 6.00}
